From the supplement of paper PMC9112550, “Optimization of the antimicrobial peptide Bac7 by deep mutational scanning” (BMC Biology, 2022)

Test system: Escherichia coli TOP10
Assay: shrunken log2 fold change of peptide-encoding DNA abundance (4.5 h post-induction vs induction); higher = less antimicrobial activity (less host growth inhibition)
Details: time post-induction: 4.5 h; library: site-saturation at positions 5, 18, 19, 20
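Further: peptides expressed intracellularly from a pBAD plasmid library in pooled LB shake-flask culture, induced with 0.3% L-arabinose, DNA abundance read by NGS, three biological replicates, DESeq2 with apeglm shrinkage.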

Sequence: RRIRRRPPRLPRPRPRPYGSPRP
- shrunken log2 fold change: -0.00192

Sequence: RRIRNRPPRLPRPRPRPPNMPRP
- shrunken log2 fold change: -0.101

Sequence: RRIRLRPPRLPRPRPRPKDAPRP
- shrunken log2 fold change: -0.11

Sequence: RRIRNRPPRLPRPRPRPSRIPRP
- shrunken log2 fold change: -0.234

Sequence: RRIRTRPPRLPRPRPRPPSQPRP
- shrunken log2 fold change: 0.269

Sequence: RRIRVRPPRLPRPRPRPKTNPRP
- shrunken log2 fold change: -0.117

Sequence: RRIRHRPPRLPRPRPRPNYQPRP
- shrunken log2 fold change: -0.28

Sequence: RRIRYRPPRLPRPRPRPQQHPRP
- shrunken log2 fold change: -0.278

Sequence: RRIRFRPPRLPRPRPRPCIGPRP
- shrunken log2 fold change: -0.1

Sequence: RRIRPRPPRLPRPRPRPWYMPRP
- shrunken log2 fold change: -0.247

Sequence: RRIRIRPPRLPRPRPRPFEFPRP
- shrunken log2 fold change: -0.00107

Sequence: RRIRDRPPRLPRPRPRPYDQPRP
- shrunken log2 fold change: -0.473

Sequence: RRIRCRPPRLPRPRPRPAMHPRP
- shrunken log2 fold change: 0.354

Sequence: RRIRWRPPRLPRPRPRPKNLPRP
- shrunken log2 fold change: 0.0793

Sequence: RRIRKRPPRLPRPRPRPTAVPRP
- shrunken log2 fold change: 0.284

Sequence: RRIRHRPPRLPRPRPRPRINPRP
- shrunken log2 fold change: -0.0802

Sequence: RRIRNRPPRLPRPRPRPYVRPRP
- shrunken log2 fold change: -0.451

Sequence: RRIRSRPPRLPRPRPRPNLHPRP
- shrunken log2 fold change: -0.219

Sequence: RRIRCRPPRLPRPRPRPKHPPRP
- shrunken log2 fold change: -0.0559

Sequence: RRIRDRPPRLPRPRPRPFINPRP
- shrunken log2 fold change: -0.337

Sequence: RRIRVRPPRLPRPRPRPDYDPRP
- shrunken log2 fold change: 0.00442

Sequence: RRIRYRPPRLPRPRPRPDADPRP
- shrunken log2 fold change: 0.00911

Sequence: RRIRRRPPRLPRPRPRPGNSPRP
- shrunken log2 fold change: 0.119

Sequence: RRIRERPPRLPRPRPRPTVTPRP
- shrunken log2 fold change: 0.0913

Sequence: RRIRCRPPRLPRPRPRPSQRPRP
- shrunken log2 fold change: -0.54

Sequence: RRIRFRPPRLPRPRPRPDCQPRP
- shrunken log2 fold change: 0.0422

Sequence: RRIRMRPPRLPRPRPRPDHLPRP
- shrunken log2 fold change: -0.0674

Sequence: RRIRERPPRLPRPRPRPEGNPRP
- shrunken log2 fold change: 0.00934

Sequence: RRIRQRPPRLPRPRPRPMPTPRP
- shrunken log2 fold change: 0.0311

Sequence: RRIRSRPPRLPRPRPRPLWMPRP
- shrunken log2 fold change: -0.0686

Sequence: RRIRKRPPRLPRPRPRPQRQPRP
- shrunken log2 fold change: 0.265

Sequence: RRIRSRPPRLPRPRPRPWMNPRP
- shrunken log2 fold change: -0.267

Sequence: RRIRMRPPRLPRPRPRPDHTPRP
- shrunken log2 fold change: 0.329

Sequence: RRIRVRPPRLPRPRPRPHFYPRP
- shrunken log2 fold change: -0.173

Sequence: RRIRCRPPRLPRPRPRPPTYPRP
- shrunken log2 fold change: -0.133

Sequence: RRIRGRPPRLPRPRPRPYMSPRP
- shrunken log2 fold change: 0.0366

Sequence: RRIRMRPPRLPRPRPRPDWAPRP
- shrunken log2 fold change: 0.469

Sequence: RRIRSRPPRLPRPRPRPHVVPRP
- shrunken log2 fold change: 0.0681

Sequence: RRIRTRPPRLPRPRPRPGLVPRP
- shrunken log2 fold change: 0.0962

Sequence: RRIRTRPPRLPRPRPRPYAEPRP
- shrunken log2 fold change: -0.612

Sequence: RRIRNRPPRLPRPRPRPVLWPRP
- shrunken log2 fold change: 0.00135

Sequence: RRIRWRPPRLPRPRPRPAIYPRP
- shrunken log2 fold change: -0.259

Sequence: RRIRGRPPRLPRPRPRPMNEPRP
- shrunken log2 fold change: 0.056

Sequence: RRIRHRPPRLPRPRPRPWVYPRP
- shrunken log2 fold change: -0.125

Sequence: RRIRHRPPRLPRPRPRPRERPRP
- shrunken log2 fold change: 0.392

Sequence: RRIRKRPPRLPRPRPRPRNFPRP
- shrunken log2 fold change: 0.731

Sequence: RRIRNRPPRLPRPRPRPFTLPRP
- shrunken log2 fold change: -0.884

Sequence: RRIRLRPPRLPRPRPRPGDYPRP
- shrunken log2 fold change: -0.0616

Sequence: RRIRMRPPRLPRPRPRPAVPPRP
- shrunken log2 fold change: 0.328

Sequence: RRIRFRPPRLPRPRPRPKDDPRP
- shrunken log2 fold change: -0.052

Sequence: RRIRDRPPRLPRPRPRPPHLPRP
- shrunken log2 fold change: 0.0118

Sequence: RRIRHRPPRLPRPRPRPKMMPRP
- shrunken log2 fold change: 0.00455

Sequence: RRIRERPPRLPRPRPRPCFWPRP
- shrunken log2 fold change: -0.176

Sequence: RRIRSRPPRLPRPRPRPDSRPRP
- shrunken log2 fold change: 0.148

Sequence: RRIRLRPPRLPRPRPRPFNTPRP
- shrunken log2 fold change: 0.724

Sequence: RRIRPRPPRLPRPRPRPFQYPRP
- shrunken log2 fold change: -0.179

Sequence: RRIRGRPPRLPRPRPRPLRDPRP
- shrunken log2 fold change: 1.3

Sequence: RRIRMRPPRLPRPRPRPYGSPRP
- shrunken log2 fold change: -0.0489

Sequence: RRIRYRPPRLPRPRPRPAWSPRP
- shrunken log2 fold change: -0.292

Sequence: RRIRPRPPRLPRPRPRPDQYPRP
- shrunken log2 fold change: -0.114

Sequence: RRIRCRPPRLPRPRPRPSCRPRP
- shrunken log2 fold change: -0.685

Sequence: RRIRPRPPRLPRPRPRPKQGPRP
- shrunken log2 fold change: 0.0197

Sequence: RRIRRRPPRLPRPRPRPDFWPRP
- shrunken log2 fold change: 0.647

Sequence: RRIRWRPPRLPRPRPRPKSHPRP
- shrunken log2 fold change: 0.249

Sequence: RRIRSRPPRLPRPRPRPHNLPRP
- shrunken log2 fold change: -0.33

Sequence: RRIRKRPPRLPRPRPRPDQAPRP
- shrunken log2 fold change: -0.029

Sequence: RRIRGRPPRLPRPRPRPDKPPRP
- shrunken log2 fold change: 0.415

Sequence: RRIRQRPPRLPRPRPRPLVFPRP
- shrunken log2 fold change: -0.0658

Sequence: RRIRIRPPRLPRPRPRPFMTPRP
- shrunken log2 fold change: -1.01

Sequence: RRIRERPPRLPRPRPRPDWAPRP
- shrunken log2 fold change: 0.0306

Sequence: RRIRNRPPRLPRPRPRPKYTPRP
- shrunken log2 fold change: -0.63

Sequence: RRIRSRPPRLPRPRPRPKCYPRP
- shrunken log2 fold change: -0.16

Sequence: RRIRYRPPRLPRPRPRPWVYPRP
- shrunken log2 fold change: -0.234

Sequence: RRIRPRPPRLPRPRPRPLTNPRP
- shrunken log2 fold change: -0.521

Sequence: RRIRTRPPRLPRPRPRPNRCPRP
- shrunken log2 fold change: -0.189

Sequence: RRIRHRPPRLPRPRPRPLRMPRP
- shrunken log2 fold change: -0.0592

Sequence: RRIRYRPPRLPRPRPRPYARPRP
- shrunken log2 fold change: -0.0987

Sequence: RRIRCRPPRLPRPRPRPEWHPRP
- shrunken log2 fold change: -0.0462

Sequence: RRIRNRPPRLPRPRPRPDIKPRP
- shrunken log2 fold change: -0.171

Sequence: RRIRMRPPRLPRPRPRPPSPPRP
- shrunken log2 fold change: 1.57

Sequence: RRIRQRPPRLPRPRPRPLFDPRP
- shrunken log2 fold change: -0.607

Sequence: RRIRFRPPRLPRPRPRPWQPPRP
- shrunken log2 fold change: 0.0512

Sequence: RRIRYRPPRLPRPRPRPKWWPRP
- shrunken log2 fold change: -0.0129

Sequence: RRIRLRPPRLPRPRPRPNQIPRP
- shrunken log2 fold change: -0.253

Sequence: RRIRYRPPRLPRPRPRPPKNPRP
- shrunken log2 fold change: -0.164

Sequence: RRIRVRPPRLPRPRPRPQVCPRP
- shrunken log2 fold change: -0.0138

Sequence: RRIRPRPPRLPRPRPRPHVYPRP
- shrunken log2 fold change: -0.552

Sequence: RRIRKRPPRLPRPRPRPIYHPRP
- shrunken log2 fold change: -0.472

Sequence: RRIRPRPPRLPRPRPRPWLAPRP
- shrunken log2 fold change: 0.343

Sequence: RRIRDRPPRLPRPRPRPEWIPRP
- shrunken log2 fold change: 0.0504

Sequence: RRIRYRPPRLPRPRPRPGEGPRP
- shrunken log2 fold change: 0.00405

Sequence: RRIRVRPPRLPRPRPRPGSVPRP
- shrunken log2 fold change: -0.269

Sequence: RRIRYRPPRLPRPRPRPTQTPRP
- shrunken log2 fold change: 0.0249

Sequence: RRIRKRPPRLPRPRPRPGPVPRP
- shrunken log2 fold change: 0.531

Sequence: RRIRNRPPRLPRPRPRPTCLPRP
- shrunken log2 fold change: -0.0993

Sequence: RRIRPRPPRLPRPRPRPMEHPRP
- shrunken log2 fold change: -0.0171

Sequence: RRIRIRPPRLPRPRPRPNTRPRP
- shrunken log2 fold change: -0.507

Sequence: RRIRARPPRLPRPRPRPRDHPRP
- shrunken log2 fold change: 0.158

Sequence: RRIRDRPPRLPRPRPRPGTGPRP
- shrunken log2 fold change: 0.304

Sequence: RRIRPRPPRLPRPRPRPDQHPRP
- shrunken log2 fold change: -0.0313

Sequence: RRIRRRPPRLPRPRPRPANRPRP
- shrunken log2 fold change: -0.0151

Sequence: RRIRLRPPRLPRPRPRPCCEPRP
- shrunken log2 fold change: 0.812

Sequence: RRIRIRPPRLPRPRPRPEIQPRP
- shrunken log2 fold change: -0.171

Sequence: RRIRKRPPRLPRPRPRPVLRPRP
- shrunken log2 fold change: 0.0359

Sequence: RRIRFRPPRLPRPRPRPDHMPRP
- shrunken log2 fold change: -0.585

Sequence: RRIRCRPPRLPRPRPRPPTIPRP
- shrunken log2 fold change: -0.158

Sequence: RRIRKRPPRLPRPRPRPVWHPRP
- shrunken log2 fold change: 0.0861

Sequence: RRIRQRPPRLPRPRPRPCNAPRP
- shrunken log2 fold change: 0.0357

Sequence: RRIRTRPPRLPRPRPRPVGSPRP
- shrunken log2 fold change: -0.243
